# B1: TA encoded by SEQ ID NO: 1: transaminase with the amino acid sequence of SEQ ID NO: 1 (protein, listed as Sinorhizobium arboris)
# chain: MNIAAQSWERREATSFFHTFTDLPSLKTDGPVIIDHGEGPYIIDTVGRRYFEGNSGLWNMTLGFSERRLSDAALKQYQEFPGYHTFFGRNSKPTVELAERMLKLAPAPMSRVFFTNSGSEANESIVKLLWMMWAAEGRPERRKLLTRKNAYHGATVMASALTGKDYVKAFGLPGPEIVTLDCPHAWRFALPGEGDDEFAARLAANLETRILQEGPETIAGMFAEPVMGAGGVIVPPATYFAKIQPVLQRYGIPLIADEVICGFGRTGSLWGTLAVGQQPDIIVASKSMSAGYFPMGAVMLSADIDKRATAASEVWEEFPHGFTTGGHPVGCAISLEAIRIITEEGVFENVKSVSETFQSGLRALADHPMIGEARGMGLMGALETVADKKTKQSFSGDLRIGERISKEARDRGFIIRPLGSSVVLAPPFISTHGQIEELLAVLKEVLDVVYGTVKGEVA
# modifications: Sinorhizobium arboris sp. nov.
# B2: gabT: gabT transaminase from Escherichia coli (UniProt P22256; SEQ ID NO: 3) (protein, listed as Escherichia coli)
# chain: MNSNKELMQRRSQAIPRGVGQIHPIFADRAENCRVWDVEGREYLDFAGGIAVLNTGHLHPKVVAAVEAQLKKLSHTCFQVLAYEPYLELCEIMNQKVPGDFAKKTLLVTTGSEAVENAVKIARAATKRSGTIAFSGAYHGRTHYTLALTGKVNPYSAGMGLMPGHVYRALYPCPLHGISEDDAIASIHRIFKNDAAPEDIAAIVIEPVQGEGGFYASSPAFMQRLRALCDEHGIMLIADEVQSGAGRTGTLFAMEQMGVAPDLTTFAKSIAGGFPLAGVTGRAEVMDAVAPGGLGGTYAGNPIACVAALEVLKVFEQENLLQKANDLGQKLKDGLLAIAEKHPEIGDVRGLGAMIAIELFEDGDHNKPDAKLTAEIVARARDKGLILLSCGPYYNVLRILVPLTIEDAQIRQGLEIISQCFDEAKQ
# Key:
# [1] = system: weeds; conditions: EP 0030424; cited from earlier work
# [2] = Conversion of PPO to L-glufosinate with isopropylamine as amine donor; assay type: biochemical; conditions: 0.25 mg/mL TA, 25 mM PPO, 250 mM isopropylamine, pH 8.0, 25 to 30° C.
# Protocol: Isopropylamine can be used as an amine donor for conversion of PPO to L-glufosinate with the use of an appropriate TA. PPO was converted to L-glufosinate in a reaction with the following components: • 0.25 mg/mL TA encoded by SEQ ID NO: 1 • 25 mM PPO • 0.2 mM pyridoxal phosphate • 250 mM isopropylamine (pHed to 8 w/H3PO4) • 100 mM Kphos buffer pH 8.0
# The reaction was incubated at 25 to 30° C. for 30 hours with gentle shaking (250 rpm). At 0 hours, the amount of L-glufosinate as measured by HPLC was 0 mM, at 20 hours it was 14 mM, and at 30 hours it was 18 mM.
# [3] = Conversion of PPO to L-glufosinate with lysine as amine donor; assay type: biochemical; conditions: over 20 hours; 0.4 mg/mL gabT, 25 mM PPO, 75 mM L-Lysine, pH 8.0, 30° C.
# Protocol: Lysine can be used as an amine donor for conversion of PPO to L-glufosinate with the use of an appropriate TA. PPO was converted to L-glufosinate in a reaction with the following components: • 0.4 mg/mL gabT (purified as in Example 3) • 25 mM PPO (pHed to 8 w/NaOH) • 0.2 mM pyridoxal phosphate • 75 mM L-Lysine dihydrochloride (pHed to 8 w/NaOH) • 100 mM Kphos buffer pH 8.0
# The reaction was incubated at 30° C. for 20 hours with shaking (250 rpm). L-glufosinate was formed at a rate of 0.4 mM/hr over the 20 hours.
molecule,measurement,setting,value
"CP(=O)(O)CCC(=O)C(=O)O [PPO, 2-oxo-4-(hydroxy(methyl)phosphinoyl)butyric acid]",herbicidal activity,[1],can contribute herbicidal activity
B1,amount of L-glufosinate formed (HPLC),[2]; at 20 hours,14 mM
same,amount of L-glufosinate formed (HPLC),[2]; at 30 hours,18 mM
B2,rate of L-glufosinate formation,[3],0.4 mM/h
